Data on 1 substance can be found in paper PMC5582858, “The yeast kinesin-5 Cin8 interacts with the microtubule in a noncanonical manner” (The Journal of Biological Chemistry, 2017).

The target of test [1] is Paclitaxel-stabilized microtubules (bovine brain αβ-tubulin) (bovine) (UniProt Q6B856).
Test [2] shares this target. Briefly: co-sedimentation; 3 μM Cin8, 1 μM microtubules, no added nucleotide or 1 mM ATP, ADP or AMPPNP, low and high ionic strength; SDS-PAGE of supernatant and pellet.

The substance “Cin8-His-Δ99 (Cin8 motor domain in which the 99-residue loop 8 insert is substituted with the 7-residue loop 8 of Kip1) (from UniProt P27895 70-535) (domain or fragment)” returned a K0.5,MT of the microtubule-stimulated steady-state ATPase (NADH coupled assay), 21 mM ionic strength in test [1] of 1.3 µM. Further, in test [2], the stoichiometry N (commonly a count of units in the complex or per binding partner) came out at 1.3.
